In PMC10758951 (2023):
No end group written: not given here.

B1: 2AcK (peptide)
chain: K(Ac)LLK(Ac)HLYH
B2: BRD2-BD1 65-194 (protein)
chain: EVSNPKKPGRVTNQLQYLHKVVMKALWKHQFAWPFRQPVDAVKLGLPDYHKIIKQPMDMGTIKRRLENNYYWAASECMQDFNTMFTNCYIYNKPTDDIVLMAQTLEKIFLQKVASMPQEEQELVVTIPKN
B3: BRD3-BD1 25-147 (protein)
chain: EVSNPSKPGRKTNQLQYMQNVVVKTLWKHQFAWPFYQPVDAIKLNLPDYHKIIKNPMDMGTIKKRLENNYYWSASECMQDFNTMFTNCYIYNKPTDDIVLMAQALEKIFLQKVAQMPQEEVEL

Columns and labels:
BRD4-BD1 42-168 = BRD4-BD1 42-168 (Homo sapiens, UniProt O60885); assay: SPR
2AcK [1] = target: B1; assay: SPR
2AcK [2] = target: B1; assay: ITC

Binder | Kd (BRD4-BD1 42-168) | Kd (2AcK [1]) | Kd (2AcK [2])
B1 | 1000 nM | – | –
B2 | – | 2000 nM | –
B3 | – | 2000 nM | 10000 nM
